# Assay results reported in patent US20190185537A1 (AstraZeneca / MedImmune, published 2019).
# Values joined by “and” are separate entries in the source; they are usually repeats but may differ in a detail not shown here. Equal values may be shown once. Numbered stars: 1 amine (or outer) side, 2 acyl side, 3 side chain; on linkers, the order of the positions; unused ones are H or OH. Side chains are listed from the residue outwards. Ends that are not written are not given here. * marks the point of attachment. γGlu = O=C(O)[C@H](CCC(=O)[*:2])N[*:1]; Palmitoyl = CCCCCCCCCCCCCCCC(=O)*
# T1: human glucose-dependent insulinotropic peptide (gastric inhibitory polypeptide) receptor (human) (UniProt P48546)
# T1 sequence (looked up): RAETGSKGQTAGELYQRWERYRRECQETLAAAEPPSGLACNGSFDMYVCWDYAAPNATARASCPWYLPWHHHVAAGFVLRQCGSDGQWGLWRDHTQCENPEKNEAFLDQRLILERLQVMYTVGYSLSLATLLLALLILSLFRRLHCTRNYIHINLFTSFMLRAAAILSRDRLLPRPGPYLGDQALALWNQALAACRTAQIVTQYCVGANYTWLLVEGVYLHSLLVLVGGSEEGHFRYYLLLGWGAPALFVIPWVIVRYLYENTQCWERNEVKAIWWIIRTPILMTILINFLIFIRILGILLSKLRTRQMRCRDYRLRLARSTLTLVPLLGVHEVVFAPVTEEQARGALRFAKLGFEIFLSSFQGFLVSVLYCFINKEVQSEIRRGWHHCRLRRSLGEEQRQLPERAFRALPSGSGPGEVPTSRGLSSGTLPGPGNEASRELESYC
# Legend:
# Test in all cases: cell-based or functional assay
# human glucagon receptor = human glucagon receptor (human, UniProt P47871 26-477)
# Chain of human glucagon receptor (P47871 26-477): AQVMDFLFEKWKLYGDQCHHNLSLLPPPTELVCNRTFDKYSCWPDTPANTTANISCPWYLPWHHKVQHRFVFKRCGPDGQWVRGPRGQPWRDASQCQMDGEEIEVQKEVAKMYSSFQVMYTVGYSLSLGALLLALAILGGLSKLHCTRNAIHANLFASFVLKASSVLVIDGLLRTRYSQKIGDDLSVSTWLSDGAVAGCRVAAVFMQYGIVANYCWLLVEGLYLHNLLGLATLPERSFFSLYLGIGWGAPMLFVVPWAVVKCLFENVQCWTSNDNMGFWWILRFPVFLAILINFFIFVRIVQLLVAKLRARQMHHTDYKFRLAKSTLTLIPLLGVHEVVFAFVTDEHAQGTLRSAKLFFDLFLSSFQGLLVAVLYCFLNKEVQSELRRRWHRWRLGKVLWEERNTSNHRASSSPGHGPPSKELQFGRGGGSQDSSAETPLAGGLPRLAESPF
# human GLP-1 receptor = human GLP-1 receptor (human, UniProt P43220 24-463)
# Chain of human GLP-1 receptor (P43220 24-463): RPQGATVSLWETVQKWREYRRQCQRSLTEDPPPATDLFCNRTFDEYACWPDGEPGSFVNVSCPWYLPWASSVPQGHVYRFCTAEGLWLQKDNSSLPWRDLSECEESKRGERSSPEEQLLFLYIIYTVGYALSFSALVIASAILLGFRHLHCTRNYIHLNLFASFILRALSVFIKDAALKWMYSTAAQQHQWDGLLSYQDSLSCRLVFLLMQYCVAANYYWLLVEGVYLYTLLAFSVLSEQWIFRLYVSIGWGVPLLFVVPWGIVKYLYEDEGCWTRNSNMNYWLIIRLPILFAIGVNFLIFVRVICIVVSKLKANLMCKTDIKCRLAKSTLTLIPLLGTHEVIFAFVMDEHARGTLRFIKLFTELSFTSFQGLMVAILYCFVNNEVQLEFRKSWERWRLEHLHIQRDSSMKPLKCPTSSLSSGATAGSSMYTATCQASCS
# [1] = target: T1, human glucose-dependent insulinotropic peptide (gastric inhibitory polypeptide) receptor (human)
binder,measurement,setting,value
HSQGTFTSDYSKYLDSK([γGlu-Palmitoyl])RAQDFVEWLVAGG-NH2 (N-terminus assumed; SMILES CCCCCCCCCCCCCCCC(=O)N[C@@H](CCC(=O)NCCCC[C@H](NC(=O)[C@H](CO)NC(=O)[C@H](CC(=O)O)NC(=O)[C@H](CC(C)C)NC(=O)[C@H](Cc1ccc(O)cc1)NC(=O)[C@H](CCCCN)NC(=O)[C@H](CO)NC(=O)[C@H](Cc1ccc(O)cc1)NC(=O)[C@H](CC(=O)O)NC(=O)[C@H](CO)NC(=O)[C@@H](NC(=O)[C@H](Cc1ccccc1)NC(=O)[C@@H](NC(=O)CNC(=O)[C@H](CCC(N)=O)NC(=O)[C@H](CO)NC(=O)[C@@H](N)Cc1c[nH]cn1)[C@@H](C)O)[C@@H](C)O)C(=O)N[C@@H](CCCNC(=N)N)C(=O)N[C@@H](C)C(=O)N[C@@H](CCC(N)=O)C(=O)N[C@@H](CC(=O)O)C(=O)N[C@@H](Cc1ccccc1)C(=O)N[C@H](C(=O)N[C@@H](CCC(=O)O)C(=O)N[C@@H](Cc1c[nH]c2ccccc12)C(=O)N[C@@H](CC(C)C)C(=O)N[C@H](C(=O)N[C@@H](C)C(=O)NCC(=O)NCC(N)=O)C(C)C)C(C)C)C(=O)O) [g600],cAMP EC50 (assay 1),human glucagon receptor,0.00547 nM
same,cAMP EC50 (assay 1),human GLP-1 receptor,0.0666 nM
same,cAMP EC50 (assay 1),[1],82.8 nM and 124 nM
HGQGTFTSDYSKYLDSK([γGlu-Palmitoyl])RAEDFVEWLVAGG-NH2 (N-terminus assumed; SMILES CCCCCCCCCCCCCCCC(=O)N[C@@H](CCC(=O)NCCCC[C@H](NC(=O)[C@H](CO)NC(=O)[C@H](CC(=O)O)NC(=O)[C@H](CC(C)C)NC(=O)[C@H](Cc1ccc(O)cc1)NC(=O)[C@H](CCCCN)NC(=O)[C@H](CO)NC(=O)[C@H](Cc1ccc(O)cc1)NC(=O)[C@H](CC(=O)O)NC(=O)[C@H](CO)NC(=O)[C@@H](NC(=O)[C@H](Cc1ccccc1)NC(=O)[C@@H](NC(=O)CNC(=O)[C@H](CCC(N)=O)NC(=O)CNC(=O)[C@@H](N)Cc1c[nH]cn1)[C@@H](C)O)[C@@H](C)O)C(=O)N[C@@H](CCCNC(=N)N)C(=O)N[C@@H](C)C(=O)N[C@@H](CCC(=O)O)C(=O)N[C@@H](CC(=O)O)C(=O)N[C@@H](Cc1ccccc1)C(=O)N[C@H](C(=O)N[C@@H](CCC(=O)O)C(=O)N[C@@H](Cc1c[nH]c2ccccc12)C(=O)N[C@@H](CC(C)C)C(=O)N[C@H](C(=O)N[C@@H](C)C(=O)NCC(=O)NCC(N)=O)C(C)C)C(C)C)C(=O)O) [g680],cAMP EC50 (assay 1),human glucagon receptor,3.68 nM
same,cAMP EC50 (assay 1),human GLP-1 receptor,0.195 nM
same,cAMP EC50 (assay 1),[1],96.7 nM
HSEGTFTSDYSKYLDSK([γGlu-Palmitoyl])RAEDFVEWLVAGG-NH2 (N-terminus assumed; SMILES CCCCCCCCCCCCCCCC(=O)N[C@@H](CCC(=O)NCCCC[C@H](NC(=O)[C@H](CO)NC(=O)[C@H](CC(=O)O)NC(=O)[C@H](CC(C)C)NC(=O)[C@H](Cc1ccc(O)cc1)NC(=O)[C@H](CCCCN)NC(=O)[C@H](CO)NC(=O)[C@H](Cc1ccc(O)cc1)NC(=O)[C@H](CC(=O)O)NC(=O)[C@H](CO)NC(=O)[C@@H](NC(=O)[C@H](Cc1ccccc1)NC(=O)[C@@H](NC(=O)CNC(=O)[C@H](CCC(=O)O)NC(=O)[C@H](CO)NC(=O)[C@@H](N)Cc1c[nH]cn1)[C@@H](C)O)[C@@H](C)O)C(=O)N[C@@H](CCCNC(=N)N)C(=O)N[C@@H](C)C(=O)N[C@@H](CCC(=O)O)C(=O)N[C@@H](CC(=O)O)C(=O)N[C@@H](Cc1ccccc1)C(=O)N[C@H](C(=O)N[C@@H](CCC(=O)O)C(=O)N[C@@H](Cc1c[nH]c2ccccc12)C(=O)N[C@@H](CC(C)C)C(=O)N[C@H](C(=O)N[C@@H](C)C(=O)NCC(=O)NCC(N)=O)C(C)C)C(C)C)C(=O)O) [g639],cAMP EC50 (assay 1),human glucagon receptor,82.1 nM
same,cAMP EC50 (assay 1),human GLP-1 receptor,0.244 nM
same,cAMP EC50 (assay 1),[1],82.1 nM
HGEGTFTSDYSKYLDSK([γGlu-Palmitoyl])RAEDFVEWLVAGG-NH2 (N-terminus assumed; SMILES CCCCCCCCCCCCCCCC(=O)N[C@@H](CCC(=O)NCCCC[C@H](NC(=O)[C@H](CO)NC(=O)[C@H](CC(=O)O)NC(=O)[C@H](CC(C)C)NC(=O)[C@H](Cc1ccc(O)cc1)NC(=O)[C@H](CCCCN)NC(=O)[C@H](CO)NC(=O)[C@H](Cc1ccc(O)cc1)NC(=O)[C@H](CC(=O)O)NC(=O)[C@H](CO)NC(=O)[C@@H](NC(=O)[C@H](Cc1ccccc1)NC(=O)[C@@H](NC(=O)CNC(=O)[C@H](CCC(=O)O)NC(=O)CNC(=O)[C@@H](N)Cc1c[nH]cn1)[C@@H](C)O)[C@@H](C)O)C(=O)N[C@@H](CCCNC(=N)N)C(=O)N[C@@H](C)C(=O)N[C@@H](CCC(=O)O)C(=O)N[C@@H](CC(=O)O)C(=O)N[C@@H](Cc1ccccc1)C(=O)N[C@H](C(=O)N[C@@H](CCC(=O)O)C(=O)N[C@@H](Cc1c[nH]c2ccccc12)C(=O)N[C@@H](CC(C)C)C(=O)N[C@H](C(=O)N[C@@H](C)C(=O)NCC(=O)NCC(N)=O)C(C)C)C(C)C)C(=O)O) [g681],cAMP EC50 (assay 1),human glucagon receptor,39.9 nM
same,cAMP EC50 (assay 1),human GLP-1 receptor,0.283 nM
same,cAMP EC50 (assay 1),[1],124 nM
HGQGTFTSDYSKYLDSK([γGlu-Palmitoyl])RARDFVEWLVAGG-NH2 (N-terminus assumed; SMILES CCCCCCCCCCCCCCCC(=O)N[C@@H](CCC(=O)NCCCC[C@H](NC(=O)[C@H](CO)NC(=O)[C@H](CC(=O)O)NC(=O)[C@H](CC(C)C)NC(=O)[C@H](Cc1ccc(O)cc1)NC(=O)[C@H](CCCCN)NC(=O)[C@H](CO)NC(=O)[C@H](Cc1ccc(O)cc1)NC(=O)[C@H](CC(=O)O)NC(=O)[C@H](CO)NC(=O)[C@@H](NC(=O)[C@H](Cc1ccccc1)NC(=O)[C@@H](NC(=O)CNC(=O)[C@H](CCC(N)=O)NC(=O)CNC(=O)[C@@H](N)Cc1c[nH]cn1)[C@@H](C)O)[C@@H](C)O)C(=O)N[C@@H](CCCNC(=N)N)C(=O)N[C@@H](C)C(=O)N[C@@H](CCCNC(=N)N)C(=O)N[C@@H](CC(=O)O)C(=O)N[C@@H](Cc1ccccc1)C(=O)N[C@H](C(=O)N[C@@H](CCC(=O)O)C(=O)N[C@@H](Cc1c[nH]c2ccccc12)C(=O)N[C@@H](CC(C)C)C(=O)N[C@H](C(=O)N[C@@H](C)C(=O)NCC(=O)NCC(N)=O)C(C)C)C(C)C)C(=O)O) [g660],cAMP EC50 (assay 1),human glucagon receptor,1.52 nM
same,cAMP EC50 (assay 1),human GLP-1 receptor,1.06 nM
same,cAMP EC50 (assay 1),[1],332 nM
HSQGTFTSDYSEYLDSK([γGlu-Palmitoyl])RARDFVEWLVAGG-NH2 (N-terminus assumed; SMILES CCCCCCCCCCCCCCCC(=O)N[C@@H](CCC(=O)NCCCC[C@H](NC(=O)[C@H](CO)NC(=O)[C@H](CC(=O)O)NC(=O)[C@H](CC(C)C)NC(=O)[C@H](Cc1ccc(O)cc1)NC(=O)[C@H](CCC(=O)O)NC(=O)[C@H](CO)NC(=O)[C@H](Cc1ccc(O)cc1)NC(=O)[C@H](CC(=O)O)NC(=O)[C@H](CO)NC(=O)[C@@H](NC(=O)[C@H](Cc1ccccc1)NC(=O)[C@@H](NC(=O)CNC(=O)[C@H](CCC(N)=O)NC(=O)[C@H](CO)NC(=O)[C@@H](N)Cc1c[nH]cn1)[C@@H](C)O)[C@@H](C)O)C(=O)N[C@@H](CCCNC(=N)N)C(=O)N[C@@H](C)C(=O)N[C@@H](CCCNC(=N)N)C(=O)N[C@@H](CC(=O)O)C(=O)N[C@@H](Cc1ccccc1)C(=O)N[C@H](C(=O)N[C@@H](CCC(=O)O)C(=O)N[C@@H](Cc1c[nH]c2ccccc12)C(=O)N[C@@H](CC(C)C)C(=O)N[C@H](C(=O)N[C@@H](C)C(=O)NCC(=O)NCC(N)=O)C(C)C)C(C)C)C(=O)O) [g835],cAMP EC50 (assay 1),human glucagon receptor,0.424 nM
same,cAMP EC50 (assay 1),human GLP-1 receptor,0.191 nM
same,cAMP EC50 (assay 1),[1],97.2 nM
HSQGTFTSDYSKYLDSK([γGlu-Palmitoyl])RARDFVEWLVAGG-NH2 (N-terminus assumed; SMILES CCCCCCCCCCCCCCCC(=O)N[C@@H](CCC(=O)NCCCC[C@H](NC(=O)[C@H](CO)NC(=O)[C@H](CC(=O)O)NC(=O)[C@H](CC(C)C)NC(=O)[C@H](Cc1ccc(O)cc1)NC(=O)[C@H](CCCCN)NC(=O)[C@H](CO)NC(=O)[C@H](Cc1ccc(O)cc1)NC(=O)[C@H](CC(=O)O)NC(=O)[C@H](CO)NC(=O)[C@@H](NC(=O)[C@H](Cc1ccccc1)NC(=O)[C@@H](NC(=O)CNC(=O)[C@H](CCC(N)=O)NC(=O)[C@H](CO)NC(=O)[C@@H](N)Cc1c[nH]cn1)[C@@H](C)O)[C@@H](C)O)C(=O)N[C@@H](CCCNC(=N)N)C(=O)N[C@@H](C)C(=O)N[C@@H](CCCNC(=N)N)C(=O)N[C@@H](CC(=O)O)C(=O)N[C@@H](Cc1ccccc1)C(=O)N[C@H](C(=O)N[C@@H](CCC(=O)O)C(=O)N[C@@H](Cc1c[nH]c2ccccc12)C(=O)N[C@@H](CC(C)C)C(=O)N[C@H](C(=O)N[C@@H](C)C(=O)NCC(=O)NCC(N)=O)C(C)C)C(C)C)C(=O)O) [g776],cAMP EC50 (assay 1),human glucagon receptor,0.00465 nM
same,cAMP EC50 (assay 1),human GLP-1 receptor,0.0702 nM
same,cAMP EC50 (assay 1),[1],47.9 nM
